Experimental data from patent US20100104568A1 (published 2010).
One block for each molecule: values may come before it.

Tests used:
[1] = target: human RANK-L, full length, membrane-bound, expressed on HEK293T cells (human) (UniProt O14788); experiment: FACS, HEK293T with human RANK-L, 2000 pM Nanobody
[2] = target: human RANK-L, full length, membrane-bound, expressed on HEK293T cells (human) (UniProt O14788); experiment: FACS, HEK293T with human RANK-L, 80 pM Nanobody
[3] = target: human RANK-L, full length, membrane-bound, expressed on HEK293T cells (human) (UniProt O14788); experiment: FACS, HEK293T with human RANK-L, 400 pM Nanobody
[4] = target: human RANK-L, full length, membrane-bound, expressed on HEK293T cells (human) (UniProt O14788); experiment: FACS, HEK293T with human RANK-L, 3.2 pM Nanobody
[5] = target: cynomolgus RANK-L, full length, membrane-bound, expressed on HEK293T cells (cynomolgus monkey); experiment: FACS, HEK293T with cynomolgus RANK-L, 2000 pM Nanobody
[6] = target: human RANK-L, full length, membrane-bound, expressed on HEK293T cells (human) (UniProt O14788); experiment: FACS, HEK293T with human RANK-L, 16 pM Nanobody
[7] = target: cynomolgus RANK-L, full length, membrane-bound, expressed on HEK293T cells (cynomolgus monkey); experiment: FACS, HEK293T with cynomolgus RANK-L, 400 pM Nanobody
[8] = target: T1, human RANK-L (human, UniProt O14788 140-317); experiment: cell-based or functional assay
T1 chain: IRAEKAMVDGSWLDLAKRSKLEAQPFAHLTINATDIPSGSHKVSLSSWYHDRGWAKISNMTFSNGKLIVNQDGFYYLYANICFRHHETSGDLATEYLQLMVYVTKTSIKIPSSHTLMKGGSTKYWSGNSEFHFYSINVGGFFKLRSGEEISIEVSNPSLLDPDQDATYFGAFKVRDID

[9] = target: T1, human RANK-L; experiment: competition ELISA
[10] = target: T1, human RANK-L; experiment: competition ELISA

Molecule: irrelevant Nanobody (VHH)
PE mean fluorescence [1]: 87
PE mean fluorescence [2]: 82
PE mean fluorescence [3]: 90
PE mean fluorescence [4]: 84
PE mean fluorescence [5]: 149
PE mean fluorescence [6]: 77
PE mean fluorescence [7]: 140

B3: RANKL001p (VHH)
chain: EVQLVESGGGLVQPGGSLRLSCAASGFTFSSYPMGWFRQAPGKGREFVSSITGSGGSTYYADSVKGRFTISRDNAKNTLYLQMNSLRPEDTAVYYCAAYIRPDTYLSRDYRKYDYWGQGTLVTVSSGGGGSGGGSEVQLVESGGGLVQPGGSLRLSCAASGFTFSSYPMGWFRQAPGKGREFVSSITGSGGSTYYADSVKGRFTISRDNAKNTLYLQMNSLRPEDTAVYYCAAYIRPDTYLSRDYRKYDYWGQGTLVTVSSGGGC
modifications: PEGylated with maleimide PEG, average MW 40,000; residue not stated (the entry ends in GGGC)
IC50 [10]: 0.0465 nM

Other lines, results leading:

IC50, RANK-L induced NF-kappaB reporter (luciferase) in HEK293T [8]: 6.03 nM
B1: osteoprotegerin (receptor, UniProt O00300 22-401, looked up)
chain: ETFPPKYLHYDEETSHQLLCDKCPPGTYLKQHCTAKWKTVCAPCPDHYYTDSWHTSDECLYCSPVCKELQYVKQECNRTHNRVCECKEGRYLEIEFCLKHRSCPPGFGVVQAGTPERNTVCKRCPDGFFSNETSSKAPCRKHTNCSVFGLLLTQKGNATHDNICSGNSESTQKCGIDVTLCEEAFFRFAVPTKFTPNWLSVLVDNLPGTKVNAESVERIKRQHSSQEQTFQLLKLWKHQNKDQDIVKKIIQDIDLCENSVQRHIGHANLTFEQLRSLMESLPGKKVGAEDIEKTIKACKPSDQILKLLSLWRIKNGDQDTLKGLMHALKHSKTYHFPKTVTQSLKKTIRFLHSFTMYKLYQKLFLEMIGNQVQSVKISCL

EC50 [9]: 0.0409 nM
B2: RANKL003p (VHH)
chain: EVQLVESGGGLVQPGGSLRLSCAASGRTFSRSAMGWFRQAPGKGREFVGFITGSGGTTYYADSVKGRFTISRDNAQNPVYLQMNSLRPEDTAVYYCAVYRRTYISSTYSESSEYDYWGQGTLVTVSSGGGGSGGGGSGGGGSGGGGSGGGGSGGGGSEVQLVESGGGLVQPGGSLRLSCAASGRTFSRSAMGWFRQAPGKGREFVGFITGSGGTTYYADSVKGRFTISRDNAQNPVYLQMNSLRPEDTAVYYCAVYRRTYISSTYSESSEYDYWGQGTLVTVSSGGGC
modifications: PEGylated with maleimide PEG, average MW 40,000; residue not stated (the entry ends in GGGC)
